This data set deals with Escherichia coli TOP10. Nature of the data set: shrunken log2 fold change of peptide-encoding DNA abundance (4.5 h post-induction vs induction); higher = less antimicrobial activity (less host growth inhibition). Conditions: time post-induction: 4.5 h; library: site-saturation at positions 5, 18, 19, 20.
RRIRMRPPRLPRPRPRPFCGPRP: the “shrunken log2 fold change” value was -0.0687. For RRIRHRPPRLPRPRPRPDKCPRP, the “shrunken log2 fold change” value was -0.0295. The result for RRIRPRPPRLPRPRPRPWCPPRP reads 2.07; that for RRIRGRPPRLPRPRPRPMAQPRP, 1.07. Then RRIRYRPPRLPRPRPRPREVPRP, with 0.00495. Consider RRIRGRPPRLPRPRPRPQVGPRP, for which the “shrunken log2 fold change” value was 0.395. As to RRIRVRPPRLPRPRPRPPATPRP, the “shrunken log2 fold change” value is 0.18. The result for RRIRSRPPRLPRPRPRPYQYPRP reads -1.11; that for RRIRSRPPRLPRPRPRPHMKPRP, 0.427; that for RRIRERPPRLPRPRPRPDCNPRP, -0.395. As to RRIRSRPPRLPRPRPRPAFTPRP, the “shrunken log2 fold change” value is -0.0573.

As for RRIRPRPPRLPRPRPRPYCPPRP, the “shrunken log2 fold change” value was -0.365. Regarding RRIRTRPPRLPRPRPRPTSGPRP, the “shrunken log2 fold change” value is 0.0562. Turning to RRIRDRPPRLPRPRPRPSAQPRP, the “shrunken log2 fold change” value turned out to be 0.469. As for RRIRMRPPRLPRPRPRPRIDPRP, the “shrunken log2 fold change” value is 0.0569. Consider RRIRHRPPRLPRPRPRPWNFPRP, for which the “shrunken log2 fold change” value is -0.0202. As to RRIRDRPPRLPRPRPRPRCIPRP, the “shrunken log2 fold change” value was -0.0108. As to RRIRLRPPRLPRPRPRPSHKPRP, the “shrunken log2 fold change” value is -0.354. Take RRIRYRPPRLPRPRPRPGKGPRP: the “shrunken log2 fold change” value is -0.0232. RRIRPRPPRLPRPRPRPTDGPRP: the “shrunken log2 fold change” value is -0.0563. With RRIRLRPPRLPRPRPRPSYTPRP, the “shrunken log2 fold change” value was -0.792. Take RRIRSRPPRLPRPRPRPLLHPRP: the “shrunken log2 fold change” value was -0.0854.

For RRIRTRPPRLPRPRPRPNLRPRP, the “shrunken log2 fold change” value was -0.184. Regarding RRIRKRPPRLPRPRPRPCEVPRP, the “shrunken log2 fold change” value was 0.0441. On to RRIRLRPPRLPRPRPRPFCYPRP, for which the “shrunken log2 fold change” value was -0.465. RRIRPRPPRLPRPRPRPMVCPRP: the “shrunken log2 fold change” value is -0.0948.

Consider RRIRYRPPRLPRPRPRPHCWPRP, for which the “shrunken log2 fold change” value is -0.702. Then RRIRRRPPRLPRPRPRPWITPRP, with -0.0428. For RRIRPRPPRLPRPRPRPAPAPRP, the “shrunken log2 fold change” value is 0.425. In the case of RRIRHRPPRLPRPRPRPLFTPRP, the “shrunken log2 fold change” value is -0.699.

Turning to RRIRSRPPRLPRPRPRPNTEPRP, the “shrunken log2 fold change” value is 0.121. For RRIRMRPPRLPRPRPRPGKIPRP, the “shrunken log2 fold change” value amounted to 0.0308. Turning to RRIRGRPPRLPRPRPRPGGGPRP, the “shrunken log2 fold change” value is 1.33. With RRIRKRPPRLPRPRPRPYAPPRP, the “shrunken log2 fold change” value was -0.241. On to RRIRHRPPRLPRPRPRPDSAPRP, for which the “shrunken log2 fold change” value is -0.216. Then RRIRRRPPRLPRPRPRPARYPRP, with 0.317; and RRIRFRPPRLPRPRPRPAPPPRP, with 0.736; and RRIRPRPPRLPRPRPRPPYGPRP, with -0.268. Then RRIRKRPPRLPRPRPRPMGIPRP, with -0.00149; and RRIRFRPPRLPRPRPRPGSLPRP, with -0.479. With RRIRWRPPRLPRPRPRPWCSPRP, the “shrunken log2 fold change” value is -0.329. Turning to RRIRRRPPRLPRPRPRPWNYPRP, the “shrunken log2 fold change” value is -0.242. For the sequence RRIRWRPPRLPRPRPRPLVHPRP, the “shrunken log2 fold change” value was -0.11.

Take RRIRWRPPRLPRPRPRPKLYPRP: the “shrunken log2 fold change” value was 0.113. Take RRIRCRPPRLPRPRPRPYTEPRP: the “shrunken log2 fold change” value was -1.42. In the case of RRIRNRPPRLPRPRPRPQKIPRP, the “shrunken log2 fold change” value was -0.22.

As to RRIRPRPPRLPRPRPRPPPDPRP, the “shrunken log2 fold change” value came out at 0.622. As for RRIRVRPPRLPRPRPRPWKVPRP, the “shrunken log2 fold change” value is -0.0954.

On to RRIRHRPPRLPRPRPRPGPGPRP, for which the “shrunken log2 fold change” value came out at 0.282. On to RRIRCRPPRLPRPRPRPQYYPRP, for which the “shrunken log2 fold change” value was -0.977. On to RRIRMRPPRLPRPRPRPIRAPRP, for which the “shrunken log2 fold change” value came to 0.3.

Turning to RRIRLRPPRLPRPRPRPAEWPRP, the “shrunken log2 fold change” value is 0.0143. On to RRIRVRPPRLPRPRPRPAYVPRP, for which the “shrunken log2 fold change” value is -0.17. Turning to RRIRVRPPRLPRPRPRPGFPPRP, the “shrunken log2 fold change” value stood at 0.141. With RRIRDRPPRLPRPRPRPKQEPRP, the “shrunken log2 fold change” value stood at 0.00491. Consider RRIRRRPPRLPRPRPRPWPEPRP, for which the “shrunken log2 fold change” value was -0.201. For RRIRRRPPRLPRPRPRPSDHPRP, the “shrunken log2 fold change” value is -0.0811. In the case of RRIRDRPPRLPRPRPRPPDEPRP, the “shrunken log2 fold change” value was determined as 0.00333. The result for RRIRARPPRLPRPRPRPTQCPRP reads 0.391.

As for RRIRMRPPRLPRPRPRPWRYPRP, the “shrunken log2 fold change” value was 0.166. As to RRIRLRPPRLPRPRPRPCDYPRP, the “shrunken log2 fold change” value was -0.191. As for RRIRCRPPRLPRPRPRPLCSPRP, the “shrunken log2 fold change” value was -0.399. The result for RRIRYRPPRLPRPRPRPCMPPRP reads -0.123; that for RRIRWRPPRLPRPRPRPIFKPRP, 0.0632; that for RRIRKRPPRLPRPRPRPEQMPRP, -0.000598. As for RRIRHRPPRLPRPRPRPYREPRP, the “shrunken log2 fold change” value came to 0.0421. Consider RRIRIRPPRLPRPRPRPPNRPRP, for which the “shrunken log2 fold change” value was -0.462. RRIRARPPRLPRPRPRPWVGPRP: the “shrunken log2 fold change” value is 0.271. In the case of RRIRRRPPRLPRPRPRPTITPRP, the “shrunken log2 fold change” value is 0.0541. On to RRIRFRPPRLPRPRPRPVVQPRP, for which the “shrunken log2 fold change” value is -0.119.

For the sequence RRIRYRPPRLPRPRPRPAGCPRP, the “shrunken log2 fold change” value is -0.177. As for RRIRKRPPRLPRPRPRPGGIPRP, the “shrunken log2 fold change” value was 0.569. For the sequence RRIRPRPPRLPRPRPRPTDEPRP, the “shrunken log2 fold change” value is -0.128. Consider RRIRYRPPRLPRPRPRPKKNPRP, for which the “shrunken log2 fold change” value was -0.231. With RRIRFRPPRLPRPRPRPGRQPRP, the “shrunken log2 fold change” value was 0.179. For the sequence RRIRDRPPRLPRPRPRPFCEPRP, the “shrunken log2 fold change” value turned out to be 0.159. Take RRIRHRPPRLPRPRPRPTIMPRP: the “shrunken log2 fold change” value was -0.362. For RRIRNRPPRLPRPRPRPDKCPRP, the “shrunken log2 fold change” value is -0.116. As for RRIRIRPPRLPRPRPRPHYSPRP, the “shrunken log2 fold change” value was -1.15. With RRIRWRPPRLPRPRPRPWASPRP, the “shrunken log2 fold change” value amounted to 0.014. The result for RRIRDRPPRLPRPRPRPKLIPRP reads 0.088; that for RRIRIRPPRLPRPRPRPTLGPRP, -0.139. On to RRIRDRPPRLPRPRPRPPWKPRP, for which the “shrunken log2 fold change” value is 0.141. Then RRIRKRPPRLPRPRPRPWNKPRP, with -0.129. As to RRIRYRPPRLPRPRPRPGEVPRP, the “shrunken log2 fold change” value is -0.0129. As for RRIRTRPPRLPRPRPRPGDHPRP, the “shrunken log2 fold change” value stood at 0.00667. RRIRPRPPRLPRPRPRPETCPRP: the “shrunken log2 fold change” value was found to be 0.787. With RRIRFRPPRLPRPRPRPHHTPRP, the “shrunken log2 fold change” value is -0.597. RRIRDRPPRLPRPRPRPQNGPRP: the “shrunken log2 fold change” value is -0.0018. With RRIRLRPPRLPRPRPRPNMSPRP, the “shrunken log2 fold change” value is -0.129. With RRIRLRPPRLPRPRPRPRCRPRP, the “shrunken log2 fold change” value came out at 0.434.

Turning to RRIRLRPPRLPRPRPRPIFEPRP, the “shrunken log2 fold change” value was -0.0366. Take RRIRHRPPRLPRPRPRPNYVPRP: the “shrunken log2 fold change” value is -0.0206. On to RRIRPRPPRLPRPRPRPCLCPRP, for which the “shrunken log2 fold change” value is -0.222. As to RRIRRRPPRLPRPRPRPTYVPRP, the “shrunken log2 fold change” value is 0.00831.

With RRIRCRPPRLPRPRPRPCHEPRP, the “shrunken log2 fold change” value is -0.0566. Turning to RRIRVRPPRLPRPRPRPYMDPRP, the “shrunken log2 fold change” value is -0.0331. On to RRIRGRPPRLPRPRPRPWGRPRP, for which the “shrunken log2 fold change” value was found to be 0.413.

For the sequence RRIRLRPPRLPRPRPRPGALPRP, the “shrunken log2 fold change” value is 0.0546.

RRIRSRPPRLPRPRPRPKFRPRP: the “shrunken log2 fold change” value was -0.183. Consider RRIRTRPPRLPRPRPRPAIFPRP, for which the “shrunken log2 fold change” value is -0.0366. Regarding RRIRVRPPRLPRPRPRPTDHPRP, the “shrunken log2 fold change” value was determined as 0.00915.

For RRIRMRPPRLPRPRPRPKVSPRP, the “shrunken log2 fold change” value is 0.0176.

For RRIRNRPPRLPRPRPRPNTRPRP, the “shrunken log2 fold change” value is -0.115. Regarding RRIRVRPPRLPRPRPRPGKSPRP, the “shrunken log2 fold change” value was -0.0236. As to RRIRPRPPRLPRPRPRPNLHPRP, the “shrunken log2 fold change” value was -0.203.

As for RRIRARPPRLPRPRPRPQQWPRP, the “shrunken log2 fold change” value was determined as 0.2.

In the case of RRIRLRPPRLPRPRPRPQNDPRP, the “shrunken log2 fold change” value is -0.271.

Regarding RRIRPRPPRLPRPRPRPNVDPRP, the “shrunken log2 fold change” value is -0.0229. On to RRIRSRPPRLPRPRPRPFQGPRP, for which the “shrunken log2 fold change” value was -0.0569. Turning to RRIRKRPPRLPRPRPRPSHYPRP, the “shrunken log2 fold change” value is -0.248. As to RRIRPRPPRLPRPRPRPSPRPRP, the “shrunken log2 fold change” value came out at 0.633. Then RRIRYRPPRLPRPRPRPPKWPRP, with 0.223; and RRIRDRPPRLPRPRPRPTFLPRP, with 0.196; and RRIRFRPPRLPRPRPRPSKSPRP, with -0.123. Then RRIRERPPRLPRPRPRPPTPPRP, with 0.192; and RRIRKRPPRLPRPRPRPSPWPRP, with 0.141; and RRIRRRPPRLPRPRPRPQPIPRP, with 0.206.

On to RRIRHRPPRLPRPRPRPPYVPRP, for which the “shrunken log2 fold change” value was -0.0952. With RRIRSRPPRLPRPRPRPTNCPRP, the “shrunken log2 fold change” value stood at 0.0777. As to RRIRHRPPRLPRPRPRPAQMPRP, the “shrunken log2 fold change” value worked out at 0.127. With RRIRYRPPRLPRPRPRPSCTPRP, the “shrunken log2 fold change” value is -1.36. On to RRIRLRPPRLPRPRPRPVDAPRP, for which the “shrunken log2 fold change” value is 0.243.

Consider RRIRVRPPRLPRPRPRPRAVPRP, for which the “shrunken log2 fold change” value is 0.314. Regarding RRIRDRPPRLPRPRPRPLHTPRP, the “shrunken log2 fold change” value was -0.0544.

Source of the values: the supplement of paper PMC9112550, “Optimization of the antimicrobial peptide Bac7 by deep mutational scanning” (BMC Biology, 2022).
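Note: peptides expressed intracellularly from a pBAD plasmid library in pooled LB shake-flask culture, induced with 0.3% L-arabinose, DNA abundance read by NGS, three biological replicates, DESeq2 with apeglm shrinkage.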
